Numbered stars: 1 amine (or outer) side, 2 acyl side, 3 side chain; on linkers, the order of the positions; unused ones are H or OH. Bridge positions count the residues as written; N and C are the ends. Side chains are listed from the residue outwards. Ends that are not written are not given here. * marks the point of attachment. C20 diacid = O=C(O)CCCCCCCCCCCCCCCCCCC(=O)*; γGlu = O=C(O)[C@H](CCC(=O)[*:2])N[*:1]; AEEA = NCCOCCOCC(=O)O
T1: rat calcitonin receptor (rat, UniProt P32214 25-516)
T1 construct: whole, on cells; Cell membranes of transiently transfected BHK tk'ts 13 cells (Assay VIII); also called rCTR; rCT
T1 sequence (looked up): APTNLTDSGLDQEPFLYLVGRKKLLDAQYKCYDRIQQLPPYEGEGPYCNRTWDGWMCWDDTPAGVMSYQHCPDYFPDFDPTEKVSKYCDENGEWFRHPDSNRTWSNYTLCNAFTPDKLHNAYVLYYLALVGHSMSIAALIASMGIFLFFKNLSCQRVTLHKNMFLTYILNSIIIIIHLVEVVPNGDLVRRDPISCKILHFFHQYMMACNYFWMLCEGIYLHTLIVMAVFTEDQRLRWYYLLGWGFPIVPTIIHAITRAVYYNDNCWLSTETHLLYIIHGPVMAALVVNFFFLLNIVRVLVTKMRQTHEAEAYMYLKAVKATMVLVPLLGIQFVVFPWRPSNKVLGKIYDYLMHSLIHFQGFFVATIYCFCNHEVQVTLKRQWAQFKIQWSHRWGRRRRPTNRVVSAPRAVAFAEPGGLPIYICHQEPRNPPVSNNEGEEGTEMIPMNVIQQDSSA

T2: rat amylin receptor (rat calcitonin receptor + rat RAMP 3) (rat, UniProt P32214 25-516; Q9JJ73 23-147)
T2 construct: whole, on cells; Cell membranes of transiently transfected BHK tk'ts 13 cells (Assay VI); also called rAmylin-R; rat amylin 3(a) receptor
T2 sequence (looked up) 1: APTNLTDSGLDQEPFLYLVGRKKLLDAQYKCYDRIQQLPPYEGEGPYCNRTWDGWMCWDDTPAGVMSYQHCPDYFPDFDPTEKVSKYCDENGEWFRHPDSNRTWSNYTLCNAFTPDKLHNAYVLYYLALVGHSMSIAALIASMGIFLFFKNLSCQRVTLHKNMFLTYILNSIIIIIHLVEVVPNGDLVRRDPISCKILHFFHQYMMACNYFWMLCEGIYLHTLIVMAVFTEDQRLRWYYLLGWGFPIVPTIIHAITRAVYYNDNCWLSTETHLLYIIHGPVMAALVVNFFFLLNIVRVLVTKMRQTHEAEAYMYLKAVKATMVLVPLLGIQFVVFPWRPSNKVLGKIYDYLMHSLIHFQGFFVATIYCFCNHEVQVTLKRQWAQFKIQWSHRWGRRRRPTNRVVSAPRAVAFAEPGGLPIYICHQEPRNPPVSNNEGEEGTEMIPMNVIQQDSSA
T2 sequence (looked up) 2: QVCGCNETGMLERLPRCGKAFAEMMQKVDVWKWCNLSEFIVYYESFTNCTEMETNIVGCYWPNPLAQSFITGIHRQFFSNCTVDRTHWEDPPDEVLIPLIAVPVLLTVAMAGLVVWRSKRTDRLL

T3: human calcitonin receptor (human, UniProt P30988 25-474)
T3 construct: whole, on cells; Cell membranes of a stably transfected BHK cell line (Assay VII); also called hCTR; hCT
T3 sequence (looked up): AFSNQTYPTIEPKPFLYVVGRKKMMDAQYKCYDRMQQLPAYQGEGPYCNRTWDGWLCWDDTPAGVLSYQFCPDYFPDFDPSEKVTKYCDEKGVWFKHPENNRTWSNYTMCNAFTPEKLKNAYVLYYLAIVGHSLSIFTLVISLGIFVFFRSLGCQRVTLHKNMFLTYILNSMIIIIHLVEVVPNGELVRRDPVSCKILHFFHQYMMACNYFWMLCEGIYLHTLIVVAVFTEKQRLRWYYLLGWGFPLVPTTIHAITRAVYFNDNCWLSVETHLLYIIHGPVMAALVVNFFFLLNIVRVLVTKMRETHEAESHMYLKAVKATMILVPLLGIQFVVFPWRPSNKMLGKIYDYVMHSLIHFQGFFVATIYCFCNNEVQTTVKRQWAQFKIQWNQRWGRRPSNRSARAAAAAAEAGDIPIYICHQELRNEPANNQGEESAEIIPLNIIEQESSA


Assays:
[1] = molecular target: T1, rat calcitonin receptor; assay: ratio IC50 rat calcitonin receptor / IC50 rat amylin receptor
[2] = molecular target: T1, rat calcitonin receptor; assay: SPA competition vs 125I-calcitonin, membranes with rat CTR (Assay VIII)
[3] = molecular target: T2, rat amylin receptor (rat calcitonin …); assay: SPA competition vs 125I-rat amylin, membranes with rat CTR + rat RAMP3 (Assay VI)
[4] = molecular target: T3, human calcitonin receptor; assay: ratio IC50 human calcitonin receptor / IC50 human amylin receptor
Protocol: The resulting pellet was resuspended, homogenized and centrifuged (20.000 rpm, 15 min) in a buffer containing 20 mM Na-HEPES and 0.1 mM EDTA (pH 7.4, buffer 2). The resulting pellet was resuspended in buffer 2 and protein concentration was measured (BCA protein Assay, Pierce). The homogenate was kept cold during the whole procedure. The membranes were kept at −80° C. until use. The assay was performed in a 384 well Optiplate (PerkinElmer) in a total volume of 40 ul. Membranes were mixed with SPA beads. Final concentration of membranes 35 ng/μL final and SPA beads was 0.05 mg/well. Test-compounds were dissolved in DMSO and further diluted in assay buffer (50 mM Hepes, pH 7.4, 1 mM CaCl2, 5 mM MgCl₂, 0.1% OA and 0.02% Tween20). […] The final mixture was incubated with shaking at 400 rpm for 120 min at 25° C. prior to centrifugation (1500 rpm, 10 min). Samples were analyzed on TopCounter™ (Packard). The IC₅₀ was calculated using (one site binding competition analysis) GraphPad Prism5 as a measure of receptor affinity.
Membranes were prepared in the following way; the cells were rinsed with PBS and incubated with Versene for approximately 5 min before harvesting. The cells were flushed with PBS and the cell-suspension was centrifuged for 5 min at 1000 rpm. Cells were homogenized (Ultrathurrax) in a buffer containing 20 mM Na-HEPES and 10 mM EDTA (pH 7.4) and centrifuged at 20.000 rpm for 15 min. The resulting pellet was resuspended, homogenized and centrifuged (20.000 rpm, 15 min) in a buffer containing 20 mM Na-HEPES and 0.1 mM EDTA (pH 7.4, buffer 2). The resulting pellet was resuspended in buffer 2 and protein concentration was measured (BCA protein Assay, Pierce). The homogenate was kept cold during the whole procedure. The membranes were kept at −80° C. until use. Assay was performed in a 384 well Optiplate (PerkinElmer) in a total volume of 40 ul. Membranes were mixed with SPA beads.

Ratio rCT/rAmylin binding [1]	IC50 [2] [nM]	IC50 [3] [nM]	Ratio hCT/hAmylin binding [4]	Binder
309	152	0.491	47.5	K([AEEA-γGlu-C20 diacid])CNTATCATQRLANFLRHSSPNFGAIPSSTNVGSETY-NH2 (disulfide 2-7; N-terminus assumed; SMILES CC[C@H](C)[C@H](NC(=O)[C@H](C)NC(=O)CNC(=O)[C@H](Cc1ccccc1)NC(=O)[C@H](CC(N)=O)NC(=O)[C@@H]1CCCN1C(=O)[C@H](CO)NC(=O)[C@H](CO)NC(=O)[C@H](Cc1c[nH]cn1)NC(=O)[C@H](CCCNC(=N)N)NC(=O)[C@H](CC(C)C)NC(=O)[C@H](Cc1ccccc1)NC(=O)[C@H](CC(N)=O)NC(=O)[C@H](C)NC(=O)[C@H](CC(C)C)NC(=O)[C@H](CCCNC(=N)N)NC(=O)[C@H](CCC(N)=O)NC(=O)[C@@H](NC(=O)[C@H](C)NC(=O)[C@@H]1CSSC[C@H](NC(=O)[C@@H](N)CCCCNC(=O)COCCOCCNC(=O)CC[C@H](NC(=O)CCCCCCCCCCCCCCCCCCC(=O)O)C(=O)O)C(=O)N[C@@H](CC(N)=O)C(=O)N[C@@H]([C@@H](C)O)C(=O)N[C@@H](C)C(=O)N[C@@H]([C@@H](C)O)C(=O)N1)[C@@H](C)O)C(=O)N1CCC[C@H]1C(=O)N[C@@H](CO)C(=O)N[C@@H](CO)C(=O)N[C@H](C(=O)N[C@@H](CC(N)=O)C(=O)N[C@H](C(=O)NCC(=O)N[C@@H](CO)C(=O)N[C@@H](CCC(=O)O)C(=O)N[C@H](C(=O)N[C@@H](Cc1ccc(O)cc1)C(N)=O)[C@@H](C)O)C(C)C)[C@@H](C)O, Acylated analogue of human amylin; also called compound 26)
147	90.2	0.614	41.3	K([γGlu-C20 diacid])CNTATCATQRLANFLRHSSPNFGAIPSSTNVGSETY-NH2 (disulfide 2-7; N-terminus assumed; SMILES CC[C@H](C)[C@H](NC(=O)[C@H](C)NC(=O)CNC(=O)[C@H](Cc1ccccc1)NC(=O)[C@H](CC(N)=O)NC(=O)[C@@H]1CCCN1C(=O)[C@H](CO)NC(=O)[C@H](CO)NC(=O)[C@H](Cc1c[nH]cn1)NC(=O)[C@H](CCCNC(=N)N)NC(=O)[C@H](CC(C)C)NC(=O)[C@H](Cc1ccccc1)NC(=O)[C@H](CC(N)=O)NC(=O)[C@H](C)NC(=O)[C@H](CC(C)C)NC(=O)[C@H](CCCNC(=N)N)NC(=O)[C@H](CCC(N)=O)NC(=O)[C@@H](NC(=O)[C@H](C)NC(=O)[C@@H]1CSSC[C@H](NC(=O)[C@@H](N)CCCCNC(=O)CC[C@H](NC(=O)CCCCCCCCCCCCCCCCCCC(=O)O)C(=O)O)C(=O)N[C@@H](CC(N)=O)C(=O)N[C@@H]([C@@H](C)O)C(=O)N[C@@H](C)C(=O)N[C@@H]([C@@H](C)O)C(=O)N1)[C@@H](C)O)C(=O)N1CCC[C@H]1C(=O)N[C@@H](CO)C(=O)N[C@@H](CO)C(=O)N[C@H](C(=O)N[C@@H](CC(N)=O)C(=O)N[C@H](C(=O)NCC(=O)N[C@@H](CO)C(=O)N[C@@H](CCC(=O)O)C(=O)N[C@H](C(=O)N[C@@H](Cc1ccc(O)cc1)C(N)=O)[C@@H](C)O)C(C)C)[C@@H](C)O, Acylated analogue of human amylin; also called compound 27) [N^ε1-[(4S)-4-carboxy-4-(19-carboxynonadecanoylamino)butanoyl]-[Arg17,Pro21,Pro27,Glu35]-h-amylin]
104	135	1.3	27.6	K([γGlu-γGlu-C20 diacid])CNTATCATQRLADFLRHSSPNFGAPLSSTNVGSDTY-NH2 (disulfide 2-7; N-terminus assumed; SMILES CC(C)C[C@H](NC(=O)[C@H](CCCNC(=N)N)NC(=O)[C@H](CCC(N)=O)NC(=O)[C@@H](NC(=O)[C@H](C)NC(=O)[C@@H]1CSSC[C@H](NC(=O)[C@@H](N)CCCCNC(=O)CC[C@H](NC(=O)CC[C@H](NC(=O)CCCCCCCCCCCCCCCCCCC(=O)O)C(=O)O)C(=O)O)C(=O)N[C@@H](CC(N)=O)C(=O)N[C@@H]([C@@H](C)O)C(=O)N[C@@H](C)C(=O)N[C@@H]([C@@H](C)O)C(=O)N1)[C@@H](C)O)C(=O)N[C@@H](C)C(=O)N[C@@H](CC(=O)O)C(=O)N[C@@H](Cc1ccccc1)C(=O)N[C@@H](CC(C)C)C(=O)N[C@@H](CCCNC(=N)N)C(=O)N[C@@H](Cc1c[nH]cn1)C(=O)N[C@@H](CO)C(=O)N[C@@H](CO)C(=O)N1CCC[C@H]1C(=O)N[C@@H](CC(N)=O)C(=O)N[C@@H](Cc1ccccc1)C(=O)NCC(=O)N[C@@H](C)C(=O)N1CCC[C@H]1C(=O)N[C@@H](CC(C)C)C(=O)N[C@@H](CO)C(=O)N[C@@H](CO)C(=O)N[C@H](C(=O)N[C@@H](CC(N)=O)C(=O)N[C@H](C(=O)NCC(=O)N[C@@H](CO)C(=O)N[C@@H](CC(=O)O)C(=O)N[C@H](C(=O)N[C@@H](Cc1ccc(O)cc1)C(N)=O)[C@@H](C)O)C(C)C)[C@@H](C)O, Acylated analogue of human amylin; also called compound 1)
65.1	61.7	0.948	50.3	K([γGlu-C20 diacid])CNTATCATQRLANFLRHSSPNFGAIPSSTNVGSKTY-NH2 (disulfide 2-7; N-terminus assumed; SMILES CC[C@H](C)[C@H](NC(=O)[C@H](C)NC(=O)CNC(=O)[C@H](Cc1ccccc1)NC(=O)[C@H](CC(N)=O)NC(=O)[C@@H]1CCCN1C(=O)[C@H](CO)NC(=O)[C@H](CO)NC(=O)[C@H](Cc1c[nH]cn1)NC(=O)[C@H](CCCNC(=N)N)NC(=O)[C@H](CC(C)C)NC(=O)[C@H](Cc1ccccc1)NC(=O)[C@H](CC(N)=O)NC(=O)[C@H](C)NC(=O)[C@H](CC(C)C)NC(=O)[C@H](CCCNC(=N)N)NC(=O)[C@H](CCC(N)=O)NC(=O)[C@@H](NC(=O)[C@H](C)NC(=O)[C@@H]1CSSC[C@H](NC(=O)[C@@H](N)CCCCNC(=O)CC[C@H](NC(=O)CCCCCCCCCCCCCCCCCCC(=O)O)C(=O)O)C(=O)N[C@@H](CC(N)=O)C(=O)N[C@@H]([C@@H](C)O)C(=O)N[C@@H](C)C(=O)N[C@@H]([C@@H](C)O)C(=O)N1)[C@@H](C)O)C(=O)N1CCC[C@H]1C(=O)N[C@@H](CO)C(=O)N[C@@H](CO)C(=O)N[C@H](C(=O)N[C@@H](CC(N)=O)C(=O)N[C@H](C(=O)NCC(=O)N[C@@H](CO)C(=O)N[C@@H](CCCCN)C(=O)N[C@H](C(=O)N[C@@H](Cc1ccc(O)cc1)C(N)=O)[C@@H](C)O)C(C)C)[C@@H](C)O, Acylated analogue of human amylin; also called compound 35) [N^ε1-[(4S)-4-carboxy-4-(19-carboxynonadecanoylamino)butanoyl]-[Arg17,Pro21,Pro27,Lys35]-h-amylin]
